From article PMC2944808
Where two headings read alike, the source gives them in different places.

What was measured:
[1] = target: BMP2 (Homo sapiens) (UniProt P12643); assay: SPR; BIAcore 2000; BMP2 immobilised, CV2 proteins perfused; apparent KD from koff/kon; 6 to 9 analyte concentrations, at least three independent experiments
[2] = target: Chordin, full-length, mouse (mouse) (UniProt Q9Z0E2); assay: SPR; BIAcore 2000; Chordin immobilised, CV2 proteins perfused; apparent KD from koff/kon; 6 to 9 analyte concentrations, at least three independent experiments
Sequence of Chordin, full-length, mouse (mouse) (Q9Z0E2 27-948): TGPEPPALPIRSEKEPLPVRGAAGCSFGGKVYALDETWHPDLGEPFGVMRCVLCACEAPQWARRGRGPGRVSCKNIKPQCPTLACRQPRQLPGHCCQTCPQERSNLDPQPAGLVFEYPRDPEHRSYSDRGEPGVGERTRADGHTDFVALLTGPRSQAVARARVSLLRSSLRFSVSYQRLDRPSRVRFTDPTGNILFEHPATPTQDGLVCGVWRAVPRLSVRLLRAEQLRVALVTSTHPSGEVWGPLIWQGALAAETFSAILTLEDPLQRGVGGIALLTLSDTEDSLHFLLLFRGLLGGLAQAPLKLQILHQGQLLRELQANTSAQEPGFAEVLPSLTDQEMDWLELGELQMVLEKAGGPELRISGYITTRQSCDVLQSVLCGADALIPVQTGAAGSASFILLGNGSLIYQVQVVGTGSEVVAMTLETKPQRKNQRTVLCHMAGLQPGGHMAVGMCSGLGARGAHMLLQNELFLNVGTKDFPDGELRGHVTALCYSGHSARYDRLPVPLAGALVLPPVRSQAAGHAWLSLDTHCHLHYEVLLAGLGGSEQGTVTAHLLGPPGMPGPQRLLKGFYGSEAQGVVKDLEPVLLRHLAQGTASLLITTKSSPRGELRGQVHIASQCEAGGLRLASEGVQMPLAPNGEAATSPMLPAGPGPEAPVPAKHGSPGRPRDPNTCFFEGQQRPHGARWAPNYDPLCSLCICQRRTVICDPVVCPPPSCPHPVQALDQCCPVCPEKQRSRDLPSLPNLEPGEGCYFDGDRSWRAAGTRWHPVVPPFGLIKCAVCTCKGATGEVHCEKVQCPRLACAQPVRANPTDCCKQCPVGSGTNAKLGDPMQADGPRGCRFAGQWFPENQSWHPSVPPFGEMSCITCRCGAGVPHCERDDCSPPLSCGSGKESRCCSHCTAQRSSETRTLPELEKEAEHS

[3] = target: VWC2 domain of Chordin, mouse (mouse); assay: SPR; BIAcore 2000; VWC2 domain of Chordin immobilised, CV2 proteins perfused; apparent KD from koff/kon; 6 to 9 analyte concentrations, at least three independent experiments
[4] = target: Crossveinless-2 (CV2), full-length, zebrafish (zebrafish); assay: SPR; BIAcore 2000; CV2 immobilised on the chip (legend of Figure 1E: CV2-N), Chordin (50-600 nM) or Chordin VWC2 (10-120 nM) in solution; apparent KD
[5] = target: BMP2 (Homo sapiens) (UniProt P12643); settings: cited from earlier work

Sequence of BMP2 (Homo sapiens) (P12643 283-396): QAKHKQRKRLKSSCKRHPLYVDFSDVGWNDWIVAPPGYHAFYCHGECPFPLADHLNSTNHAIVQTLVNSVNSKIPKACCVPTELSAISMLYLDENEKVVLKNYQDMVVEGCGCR
Sequence of Chordin (Q9H2X0 27-955): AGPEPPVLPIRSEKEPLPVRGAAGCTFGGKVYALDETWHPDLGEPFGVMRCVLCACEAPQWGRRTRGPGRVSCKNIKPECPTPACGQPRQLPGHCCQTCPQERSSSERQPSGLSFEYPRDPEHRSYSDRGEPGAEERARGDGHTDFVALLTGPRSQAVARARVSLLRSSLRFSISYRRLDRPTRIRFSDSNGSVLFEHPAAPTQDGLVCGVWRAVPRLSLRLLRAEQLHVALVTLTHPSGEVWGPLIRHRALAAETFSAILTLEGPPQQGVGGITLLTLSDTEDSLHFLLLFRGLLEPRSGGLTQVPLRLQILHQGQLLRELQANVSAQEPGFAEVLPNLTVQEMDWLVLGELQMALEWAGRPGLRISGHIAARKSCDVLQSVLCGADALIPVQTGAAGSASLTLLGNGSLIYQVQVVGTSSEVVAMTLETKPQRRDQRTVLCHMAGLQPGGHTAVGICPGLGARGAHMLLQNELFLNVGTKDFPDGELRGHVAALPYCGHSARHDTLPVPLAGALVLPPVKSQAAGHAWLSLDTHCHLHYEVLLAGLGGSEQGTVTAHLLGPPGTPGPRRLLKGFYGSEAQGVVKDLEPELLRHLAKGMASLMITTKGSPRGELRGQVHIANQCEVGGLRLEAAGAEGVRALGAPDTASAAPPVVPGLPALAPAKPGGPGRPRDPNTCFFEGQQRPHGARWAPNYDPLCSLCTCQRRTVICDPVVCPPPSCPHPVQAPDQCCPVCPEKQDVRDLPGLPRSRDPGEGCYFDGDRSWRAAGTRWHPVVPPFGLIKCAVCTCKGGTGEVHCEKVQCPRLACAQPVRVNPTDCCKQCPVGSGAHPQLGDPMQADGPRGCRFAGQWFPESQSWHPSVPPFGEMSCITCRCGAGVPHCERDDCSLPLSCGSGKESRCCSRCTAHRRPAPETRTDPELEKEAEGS

Kd [1] [nM] | Kd [2] [nM] | Kd [3] [nM] | Kd [4] [nM] | Substance | Kd [5] [nM]
18000 | 183 | 172 |  | CV2 T5P/I21R (natural protein) | 
 |  |  | 5 | VWC2 domain of Chordin, mouse (domain or fragment) | 
25 | 170 | 140 |  | CV2-VWC1-5 (CV2-N) (domain or fragment) | 
22 |  |  |  | CV2 ΔSD2 (domain or fragment) | 
24 |  |  |  | CV2-VWC1-3 (domain or fragment) | 
22 | 175 | 150 |  | Crossveinless-2 (CV2), full-length, zebrafish (natural protein) | 
 | 188 | 170 |  | CV2 ΔClip-SD1 (domain or fragment) | 
 |  |  |  | Chordin (from UniProt Q9H2X0) | 20
